B1: mAb5: anti-IL-11Rα antibody, human IgG4 (S228P), kappa; VH SEQ ID NO: 201, VL SEQ ID NO: 202 (antibody, V domains shown)
VH: EVQLLESGGGLVQPGGSLRLSCAASGFTFSWYSMTWVRQAPGKGLEWVSSIVPYGDLTQYADSVKGRFTISRDNSKNTLYLQMNSLRAEDTAVYYCAKGPGWGSFDLWGRGTLVTVSS
VL: DIQMTQSPSSLSASVGDRVTITCQASQDINNYLNWYQQKPGKAPKLLIYDASNLQTGVPSRFSGSGSGTDFTFTISSLQPEDIATYYCQQHESQSPTFGPGTKVDIK
modifications: IgG4 S228P kappa constant regions; mAb5 VH Chain; mAb5 VL Chain

Legend:
[1] = system: type VI collagen formation (PRO-C6) in fibrotic human PCLS; assay: Fibrotic human precision-cut lung slice (PCLS) model, PRO-C6 ECM remodeling biomarker; assay type: cell-based; settings: for median levels of PRO-C6 compared to the no treatment (media) control: pooled data, all donors and regions, mAb5 0.3, 3.0, 30 μg/mL, nintedanib 1 μM, isotype control 30 μg/mL
Protocol: Tissue slices were prepared from the subpleural and central region of the fibrotic lung from two human end-stage donors with pulmonary fibrosis (IPF and secondary fibrosis) (see, for example, Hess et al., Toxicol In Vitro. 32:347-61, 2016). For both donors, lung tissue samples from two different regional areas (subpleural and central) were used to generate tissue cores used for PCLS. Adjacent cores were used to achieve serial PCLS for the analysis of one treatment as compared to medium treated PCLS from the same cores. This enables the comparison of densely packed fibrotic areas with fibrotic foci with less affected areas. To ensure the fibrotic status, clinical/demographic information for each patient is provided.
Each treatment was tested with three replicates for each lung region and for each donor.
Preparation and incubation of precision-cut lung slices. Lung lobes were canuled and filled with 37° C. warm 2% low-melting agarose/medium solution. Filled lobes were cooled on ice to polymerise agarose. Tissue cores with a diameter of 8 mm were prepared and cut into approximately 300 μm thick slices using a microtome (Krumdieck tissue slicer, Alabama Research and Development, Muniford, AL, USA or Vibratome OTS-5000, Science Services GmbH, Munich) in Earle's Balanced Salts Solution (EBSS). Tissue slices were incubated in Dulbecco's modified Eagle's medium/nutrient mixture F-12 Ham (DMEM) with L-glutamine and 15 mM HEPES without phenol red. Tissue slices were transferred into petri dishes and washed with DMEM for 2 hours. Medium was changed four times every 30 minutes in order to remove cell debris.
Two PCLS per well were left over night in 500 μL DMEM in 24-well plates for a final washing step. Next day, PCLS were treated with experimental treatments or controls (see Table E5) in 250 μl DMEM/F-12 culture medium for 48 hours under normal cell culture conditions (37° C., 5% CO2). Medium contained 100 units/mL penicillin and 100 μg/mL streptomycin and was not supplemented with fetal calf serum. […]
Extracellular matrix remodeling evaluation. Biomarkers that reflect ECM remodeling were assessed in supernatant by Nordic Bioscience using the following competitive ELISA: PRO-C6 (C-terminal of type VI collagen C5 domain released as type VI collagen is incorporated into the matrix; measured on mesoscale platform [hsPRO-C6]): Reflects type VI collagen formation. […]
Statistics. […] Pooled data are presented as percentage of the “no treatment” control, calculated for individual regions and donors. Statistical significant differences were evaluated on pooled data by Kruskal-Wallis with Dunn's multiple comparisons test, comparing to the “no treatment” control. […]

[2] = system: IL-11 signaling (STAT3 Reporter (Luciferase)-HEK293 cell line); assay: Cell-based STAT3 reporter (luciferase) HEK293 assay for inhibiting IL-11 signaling; parameters: species or system human
Protocol: Further testing of the lead mAbs was carried out using a cell-based reporter assay. IL-11 is reported to signal through the STAT3 and ERK pathways. Therefore, a STAT3 reporter cell line in which firefly luciferase gene expression is driven by STAT3 response elements located upstream of a minimal TATA promoter was selected to analyze mAb functional activity. In these cells, IL-11 can activate the endogenous STAT3 allowing it to bind to the STAT3 response elements, inducing transcription of the luciferase reporter gene and resulting in readily detectable luciferase expression. Antibodies to IL-11R which block IL-11 signaling should inhibit expression of IL-11 driven luciferase in these cells.
The STAT3 Reporter (Luciferase)—HEK293 cell line (BPS Bioscience, catalog #79800-P) was grown, passaged, and assayed as per manufacturer's protocols. Cells were added at 25,000 cells per well in a 96-well microtiter dish and incubated at 37° C. for 30-45 min. in 5% CO2 humidified air. Anti-IL-11R mAbs were added as a 3-fold dilution series in duplicate columns or rows, and plates were returned to the incubator for an additional 1 h at 37° C. after which 40 ng/mL IL-11 was added to each well to initiate the signal transduction cascade and luciferase production. Plates were incubated for 18-24 hours at 37° C. and luciferase was detected using a One-Step Luciferase Assay System (BPS Bioscience, cat. no. 60690-1) as per manufacturer's instructions.

hIL-11Rα = target: T1, hIL-11Rα (Homo sapiens, UniProt Q14626); assay: Kinetic binding analysis by biolayer interferometry (protein G biosensors, Octet RED96e)
T1 sequence (Q14626 23-422): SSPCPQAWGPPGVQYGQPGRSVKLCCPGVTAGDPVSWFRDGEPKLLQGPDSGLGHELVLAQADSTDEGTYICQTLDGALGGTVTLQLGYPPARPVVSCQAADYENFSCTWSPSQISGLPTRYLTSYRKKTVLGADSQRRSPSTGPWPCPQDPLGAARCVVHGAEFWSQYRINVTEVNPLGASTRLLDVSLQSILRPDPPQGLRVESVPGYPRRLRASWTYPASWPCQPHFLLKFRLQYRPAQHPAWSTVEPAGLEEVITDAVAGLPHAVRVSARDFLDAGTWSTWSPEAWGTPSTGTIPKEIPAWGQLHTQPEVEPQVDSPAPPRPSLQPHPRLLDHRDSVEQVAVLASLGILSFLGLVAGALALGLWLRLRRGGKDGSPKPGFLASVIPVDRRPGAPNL
Protocol: Association was carried out in the presence of a 2-fold dilution series of hIL-11Rα and was allowed to proceed for 120 seconds; dissociation was measured for 300 to 1200 seconds.

hIL-11R = target: T2, hIL-11R (Homo sapiens, UniProt Q14626); assay: Alternate biolayer interferometry assay (AHC biosensors) ranking mAbs 16-32 against mAb5; assay type: binding; settings: AHC biosensors
T2 sequence (Q14626 23-422): T1 sequence (Q14626 23-422)
Excerpt: A further series of antibodies were designed in which the residue at Kabat position 31 of the heavy chain was varied (mAbs 16-32). In this case an alternate biolayer interferometry assay was used to initially rank the antibodies compared to mAb5, the closest relative in sequence to mAbs 16-32. MAbs were loaded onto anti-human constant domain (AHC) biosensors (FortéBio) in 10×kinetics buffer consisting of PBS, 0.1% BSA, 0.02% polysorbate 20 (TWEEN™) for 120 s to achieve a spectral shift value of 0.8 to 1.2 nm. Association was carried out in the presence of 2-fold dilution series of hIL-11R and was allowed to proceed for 120 s. Dilution series started 10 nM. The dissociation in 10×kinetics buffer for 1200 s. Binding kinetic measurements were taken on an Octet RED96e instrument.

Molecule | median levels of PRO-C6 compared to the no treatment (media) control ([1]; 48 hours) | potency at inhibiting IL-11 signaling relative to TS7 / 8E2 (in words) [2] | dose relation of PRO-C6 reduction ([1]; 0.3, 3.0, 30 μg/mL, 48 hours) | effects on ECM remodeling relative to nintedanib ([1]; in several cases) | ka (hIL-11Rα) [M⁻¹ s⁻¹] | kd (hIL-11Rα) [s⁻¹] | ka (hIL-11R) [M⁻¹ s⁻¹] | kd (hIL-11R) [s⁻¹]
COC(=O)c1ccc2c(c1)NC(=O)/C2=C(\Nc1ccc(N(C)C(=O)CN2CCN(C)CC2)cc1)c1ccccc1 [nintedanib, Nintedanib, reference compound] | decreased | – | – | – | – | – | – | –
B1 | decreased | more potent at inhibiting IL-11 signaling than either of TS7 or 8E2 | reduced PRO-C6 in a dose-dependent manner | better effects on ECM remodeling | 63700 | <1e-07 | 490000 | 2.5e-05
